Data as given in the supplement of paper PMC10567573.

B1: RHOBTB3 (parent)
chain: STTEGIQLAKELGATYLELHSLDD
B2: FBF1 (parent)
chain: LQRASILDMRRDHEEQLQRLKLLK

Variants of: B1
Assay: protein stability index of a GFP-peptide fusion (GPS, HEK-293T) (PSI 1-6); higher = more stable
Details: c terminus: a fixed tail appended
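Further: lentivirally expressed fusions sorted by FACS into six bins by GFP to DsRed ratio, PSI derived from sequencing read proportions per bin multiplied by bin number.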

Protein stability index of substitutions, site by site:
T2: K 3.5 | R 3.5 | E 4.33 | D 4.43 | P 4.02 | G 2.54 | L 2.21 | A 3.58 | H 3.68 | M 2.8 | I 2.07 | C 3.31 | N 4.11 | Q 3.85
S1: F 2.39 | L 2.26 | H 2.81 | R 3.64 | Q 4.18 | C 2.86 | W 2.74 | P 3.63 | I 2.44 | D 4.37 | T 3.56 | A 3.21 | K 4.39 | V 3.06 | M 3.49 | N 3.19 | E 4.26 | G 3.69

Variants of: B2
Assay: as above
Details: c terminus: a fixed tail appended

Protein stability index: each site, then its substitutions
R10: D 3.44 | T 3.79 | H 3.45 | Q 3.51 | C 2.8 | W 3.06 | Y 2.59 | P 3.53 | I 2.96 | K 3.97 | F 2.36 | A 3.36 | M 2.9 | L 2.5
L22: D 3.63 | Q 4.27 | G 3.44 | F 3.5 | T 4.35 | S 4.21 | H 4.1 | K 3.74 | A 3.18 | I 3.77 | P 4.24 | M 3.44 | E 4.33 | W 3.27
E15: K 3.04 | Y 2.84 | W 2.29 | I 2.37 | N 2.91 | T 3.39 | V 3.13 | F 2.68 | C 2.5 | G 3.56 | A 3.4 | P 3.22
I6: L 4.02 | N 4.16 | K 3.7 | D 4.31 | T 3.66 | P 3.94 | C 3.4 | Y 3.58 | G 4.28 | E 3.98 | V 3.57 | F 3.51
R3: V 2.92 | Y 3.4 | K 3.74 | Q 3.33 | M 3.02 | D 4.17 | F 2.8 | I 2.23 | H 3.92 | E 4.12 | S 3.9
S5: H 2.86 | V 2.92 | N 3.65 | G 3.71 | Q 3.85 | F 2.3 | P 3.48 | D 3.81 | T 3.52 | K 3.21
H13: S 3.84 | L 2.36 | G 3.25 | A 3.89 | D 3.69 | P 3.33 | N 3.95 | Q 3.4 | C 2.2 | I 2.54 | Y 2.83 | W 2.38 | V 2.46
L23: A 4.14 | Q 4.15 | D 4.62 | E 4.8 | P 3.89 | G 3.94 | N 4.54 | V 3.69 | S 4.42 | K 4.22 | F 3.88 | R 3.94 | I 3.88 | Y 3.12
E14: A 3.32 | Q 3.49 | Y 3.04 | N 2.86 | D 3.6 | F 2.38 | K 3.43 | R 2.98 | I 3.08 | G 3.12 | T 2.96 | H 3.13 | W 2.69
Q16: G 4.09 | N 3.48 | E 3.64 | V 3.04 | T 3.45 | C 3.09 | A 3.18 | H 2.64 | L 2.73 | R 2.77
R11: K 3.7 | C 3.36 | G 3.54 | S 3.43 | I 2.98 | W 2.64 | Y 2.68 | D 3.69 | T 3.86 | Q 3.59 | L 3.44 | N 3.1
K24: F 2.65 | E 3.52 | Q 2.68 | C 1.98 | W 2.1 | L 1.87 | D 4.12 | T 2.87 | M 4.03 | N 3.55 | A 2.19 | Y 2.81
D8: S 3.6 | R 2.71 | P 3.51 | L 2.19 | C 3.2 | M 3.06 | E 3.86 | N 3.48 | Q 3.07 | G 2.76 | Y 2.72 | H 3.61 | W 2.5 | V 2.33
L7: H 4.1 | Q 3.65 | T 3.38 | N 3.99 | K 3.42 | S 4.27 | W 2.9 | P 3.98 | V 3.97 | R 3.6 | F 2.85 | M 3.85 | C 3.68 | Y 3.56
K21: Y 2.98 | D 3.88 | E 4.02 | T 3.38 | N 3.57 | V 3.07 | F 2.85 | M 3.55 | W 2.85 | A 3.59 | I 2.96 | R 3.28 | H 3.29
A4: E 4.02 | D 3.64 | T 3.6 | S 2.67 | H 3.73 | V 2.57 | W 2.28 | K 3.19 | Q 3.7 | N 3.83 | M 3.19 | L 3.13 | I 3.13 | C 2.97 | G 3.17 | F 2.9 | Y 2.96 | P 4.08
L20: G 4.34 | Q 4.33 | T 4.09 | N 4.22 | C 4.17 | E 4.49 | F 3.06 | I 3.3 | A 3.79 | M 4
L17: F 3.17 | E 4.07 | H 4 | R 3.54 | V 3.87 | S 3.77 | M 3.72 | P 4.63 | G 4.03 | I 3.91 | C 3.55 | Q 4.52 | N 3.91 | T 4.19 | A 3.9
M9: H 3.49 | C 2.25 | K 3.9 | V 3.61 | F 3.22 | Y 3.61 | W 3.04 | R 3.72 | Q 3.86
Q18: R 3.37 | K 3.51 | N 3.6 | P 3.26 | W 2.45 | I 2.47 | F 2.19 | S 3.19 | G 3.79 | Y 2.78 | C 3.1
L1: S 3.35 | G 3.89 | Y 2.35 | T 3.94 | A 3.81 | V 3.51 | F 3.19 | W 3.22 | C 3.11 | D 4.73 | P 3.87
D12: L 2.8 | C 2.51 | V 2.94 | Y 3.37 | G 3.21 | F 2.74 | M 2.81 | I 3.2 | N 3.78 | Q 3.71 | A 3.41 | W 2.34
R19: E 4.25 | M 3.03 | A 3.48 | K 3.14 | W 2.25 | P 3.75 | T 2.85 | Y 2.72 | G 3.75 | C 2.65 | I 2.11 | V 2.48
Q2: G 3.79 | E 3.44 | Y 2.77 | F 3 | T 3.54 | S 3.15 | W 2.4 | R 3.27 | K 2.93 | M 3.28 | H 3.35 | I 2.49 | C 2.63 | D 3.94 | N 3.85 | P 3.95
